Assay results reported in article PMC3470471 (Circulation research, 2012).

Biological target: the molecule itself
Experiment: cross-linking

B1: myosin light chain 1 (rat cardiac myofibrils) (natural protein)
chain: not shown
- stoichiometry N: 2
